Common to all, as to assay: MST
Experiment [1] deals with sarco/endoplasmic reticulum Ca2+-ATPase (SERCA), native rabbit, detergent solubilized (rabbit) (UniProt P04191).
Experiment [2] shares this target. The source holds these as a separate data set.
The target is the same in experiment [3]. The source holds these as a separate data set.

From publication doi:10.1101/2020.09.17.302869 come the findings set out here.

Where two headings read alike, the source gives them in different places. Bounds are passed on as bounds.

Sequence of UniProt P04191 (P04191 whole entry): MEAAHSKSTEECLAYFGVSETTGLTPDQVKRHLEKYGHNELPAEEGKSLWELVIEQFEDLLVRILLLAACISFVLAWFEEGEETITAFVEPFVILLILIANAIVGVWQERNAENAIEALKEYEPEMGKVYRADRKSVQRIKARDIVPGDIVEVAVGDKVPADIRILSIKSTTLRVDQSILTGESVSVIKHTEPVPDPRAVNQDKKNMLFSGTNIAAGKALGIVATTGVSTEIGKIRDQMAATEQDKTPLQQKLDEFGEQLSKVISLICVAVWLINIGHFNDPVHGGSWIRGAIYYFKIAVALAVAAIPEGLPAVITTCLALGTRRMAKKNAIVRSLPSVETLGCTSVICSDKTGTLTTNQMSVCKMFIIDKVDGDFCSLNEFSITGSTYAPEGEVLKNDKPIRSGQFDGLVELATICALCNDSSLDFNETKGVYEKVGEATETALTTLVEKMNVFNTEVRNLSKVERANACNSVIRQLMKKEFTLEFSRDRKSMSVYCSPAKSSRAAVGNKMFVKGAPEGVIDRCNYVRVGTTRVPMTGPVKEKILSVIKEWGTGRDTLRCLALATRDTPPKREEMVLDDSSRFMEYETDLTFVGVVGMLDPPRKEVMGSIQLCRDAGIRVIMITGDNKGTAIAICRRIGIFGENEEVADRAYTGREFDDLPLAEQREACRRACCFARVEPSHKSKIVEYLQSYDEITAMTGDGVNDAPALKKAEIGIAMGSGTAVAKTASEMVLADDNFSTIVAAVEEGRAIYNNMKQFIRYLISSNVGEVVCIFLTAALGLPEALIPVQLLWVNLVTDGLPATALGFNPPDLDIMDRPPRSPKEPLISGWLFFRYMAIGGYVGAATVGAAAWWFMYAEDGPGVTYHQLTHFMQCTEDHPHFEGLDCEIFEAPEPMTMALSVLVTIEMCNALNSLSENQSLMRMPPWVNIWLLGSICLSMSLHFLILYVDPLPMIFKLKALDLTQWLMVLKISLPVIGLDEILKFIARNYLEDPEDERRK

B1: rabbit HRC (458-640) (domain or fragment)
chain: GEEEDEDDDDEGEHHHVPHRGHRGHEEDDGGDDDDGDDSTENGHQAHRHQGHGKEEAEVTSDEHHHHVPDHGHQGHGDKEGEEEGVSTDHWHQVPRHAHHGPGGEEEGGEEELTVKAGHHVASHPPPGHRSREGHAEEHQTEVPGHHQHRMGDTDTSAERGHPASSPRQQGHPPEDTVHHHRG
B1 showed a fold loss of affinity on removal of residues 640-666 in experiment [1] of 10 fold.

B2: rabbit HRC (496-656) (domain or fragment)
chain: STENGHQAHRHQGHGKEEAEVTSDEHHHHVPDHGHQGHGDKEGEEEGVSTDHWHQVPRHAHHGPGGEEEGGEEELTVKAGHHVASHPPPGHRSREGHAEEHQTEVPGHHQHRMGDTDTSAERGHPASSPRQQGHPPEDTVHHHRGSLKEEVGPESPGPAGV
By Kd is commonly meant the concentration at which binding is half-saturated. A low value points to tighter binding. In experiment [1], B2 registered a dissociation constant (Kd) of 140 nM; a fold decrease in affinity with increased KCl concentration of over 100 fold; a fold decrease in affinity, 200 mM against 50 mM KCl of over 300 fold. Also, the dissociation constant (Kd) in experiment [2] is 5600 nM. The dissociation constant (Kd) in experiment [3] was in the range of 500 to 1000 nM.

B3: rabbit HRC (458-520) (domain or fragment)
chain: GEEEDEDDDDEGEHHHVPHRGHRGHEEDDGGDDDDGDDSTENGHQAHRHQGHGKEEAEVTSDE
Molecule B3 came in with a fold reduction of affinity by C-terminal truncation in experiment [1] of over 1000 fold.
